T1: human GIP receptor (human, UniProt P48546 22-466)
T1 sequence: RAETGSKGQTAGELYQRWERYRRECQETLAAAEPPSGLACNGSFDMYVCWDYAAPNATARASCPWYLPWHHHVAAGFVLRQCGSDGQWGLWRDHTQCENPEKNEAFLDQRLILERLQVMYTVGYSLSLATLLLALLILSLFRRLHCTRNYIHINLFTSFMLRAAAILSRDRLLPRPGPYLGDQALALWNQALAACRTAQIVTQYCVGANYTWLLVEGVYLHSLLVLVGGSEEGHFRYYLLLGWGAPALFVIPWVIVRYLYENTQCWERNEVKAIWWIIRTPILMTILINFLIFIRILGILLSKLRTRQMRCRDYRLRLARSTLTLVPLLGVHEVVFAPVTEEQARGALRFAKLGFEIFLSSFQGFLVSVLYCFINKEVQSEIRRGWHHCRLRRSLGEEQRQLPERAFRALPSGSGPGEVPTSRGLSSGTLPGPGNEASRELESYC

B1: Compound 11 (peptide)
peptide: YAQGTFTSDYSIYLDSKAAHDFVNWLLSA
HELM: PEPTIDE1{Y.[Aib].Q.G.T.F.T.S.D.Y.S.I.Y.L.D.S.K.A.A.H.D.F.V.N.W.L.L.S.A.[am]}$$$$V2.0
SMILES: CC[C@H](C)[C@H](NC(=O)[C@H](CO)NC(=O)[C@H](Cc1ccc(O)cc1)NC(=O)[C@H](CC(=O)O)NC(=O)[C@H](CO)NC(=O)[C@@H](NC(=O)[C@H](Cc1ccccc1)NC(=O)[C@@H](NC(=O)CNC(=O)[C@H](CCC(N)=O)NC(=O)C(C)(C)NC(=O)[C@@H](N)Cc1ccc(O)cc1)[C@@H](C)O)[C@@H](C)O)C(=O)N[C@@H](Cc1ccc(O)cc1)C(=O)N[C@@H](CC(C)C)C(=O)N[C@@H](CC(=O)O)C(=O)N[C@@H](CO)C(=O)N[C@@H](CCCCN)C(=O)N[C@@H](C)C(=O)N[C@@H](C)C(=O)N[C@@H](Cc1c[nH]cn1)C(=O)N[C@@H](CC(=O)O)C(=O)N[C@@H](Cc1ccccc1)C(=O)N[C@H](C(=O)N[C@@H](CC(N)=O)C(=O)N[C@@H](Cc1c[nH]c2ccccc12)C(=O)N[C@@H](CC(C)C)C(=O)N[C@@H](CC(C)C)C(=O)N[C@@H](CO)C(=O)N[C@@H](C)C(N)=O)C(C)C
B2: Compound 17 (peptide)
peptide: YAQGTFTSDYSIYLDEKAAKDFVEWLLSA
HELM: PEPTIDE1{Y.[Aib].Q.G.T.F.T.S.D.Y.S.I.Y.L.D.E.K.A.A.K.D.F.V.E.W.L.L.S.A.[am]}$$$$V2.0
SMILES: CC[C@H](C)[C@H](NC(=O)[C@H](CO)NC(=O)[C@H](Cc1ccc(O)cc1)NC(=O)[C@H](CC(=O)O)NC(=O)[C@H](CO)NC(=O)[C@@H](NC(=O)[C@H](Cc1ccccc1)NC(=O)[C@@H](NC(=O)CNC(=O)[C@H](CCC(N)=O)NC(=O)C(C)(C)NC(=O)[C@@H](N)Cc1ccc(O)cc1)[C@@H](C)O)[C@@H](C)O)C(=O)N[C@@H](Cc1ccc(O)cc1)C(=O)N[C@@H](CC(C)C)C(=O)N[C@@H](CC(=O)O)C(=O)N[C@@H](CCC(=O)O)C(=O)N[C@@H](CCCCN)C(=O)N[C@@H](C)C(=O)N[C@@H](C)C(=O)N[C@@H](CCCCN)C(=O)N[C@@H](CC(=O)O)C(=O)N[C@@H](Cc1ccccc1)C(=O)N[C@H](C(=O)N[C@@H](CCC(=O)O)C(=O)N[C@@H](Cc1c[nH]c2ccccc12)C(=O)N[C@@H](CC(C)C)C(=O)N[C@@H](CC(C)C)C(=O)N[C@@H](CO)C(=O)N[C@@H](C)C(N)=O)C(C)C
B3: Compound 18 (peptide)
peptide: YAQGTFTSDYSIYLESKAAHDFVEWLLSA
HELM: PEPTIDE1{Y.[Aib].Q.G.T.F.T.S.D.Y.S.I.Y.L.E.S.K.A.A.H.D.F.V.E.W.L.L.S.A.[am]}$$$$V2.0
SMILES: CC[C@H](C)[C@H](NC(=O)[C@H](CO)NC(=O)[C@H](Cc1ccc(O)cc1)NC(=O)[C@H](CC(=O)O)NC(=O)[C@H](CO)NC(=O)[C@@H](NC(=O)[C@H](Cc1ccccc1)NC(=O)[C@@H](NC(=O)CNC(=O)[C@H](CCC(N)=O)NC(=O)C(C)(C)NC(=O)[C@@H](N)Cc1ccc(O)cc1)[C@@H](C)O)[C@@H](C)O)C(=O)N[C@@H](Cc1ccc(O)cc1)C(=O)N[C@@H](CC(C)C)C(=O)N[C@@H](CCC(=O)O)C(=O)N[C@@H](CO)C(=O)N[C@@H](CCCCN)C(=O)N[C@@H](C)C(=O)N[C@@H](C)C(=O)N[C@@H](Cc1c[nH]cn1)C(=O)N[C@@H](CC(=O)O)C(=O)N[C@@H](Cc1ccccc1)C(=O)N[C@H](C(=O)N[C@@H](CCC(=O)O)C(=O)N[C@@H](Cc1c[nH]c2ccccc12)C(=O)N[C@@H](CC(C)C)C(=O)N[C@@H](CC(C)C)C(=O)N[C@@H](CO)C(=O)N[C@@H](C)C(N)=O)C(C)C
B4: Compound 12 (peptide)
peptide: YAQGTFTSDYSIYLDSKAAHDFVEWLLRA
HELM: PEPTIDE1{Y.[Aib].Q.G.T.F.T.S.D.Y.S.I.Y.L.D.S.K.A.A.H.D.F.V.E.W.L.L.R.A.[am]}$$$$V2.0
SMILES: CC[C@H](C)[C@H](NC(=O)[C@H](CO)NC(=O)[C@H](Cc1ccc(O)cc1)NC(=O)[C@H](CC(=O)O)NC(=O)[C@H](CO)NC(=O)[C@@H](NC(=O)[C@H](Cc1ccccc1)NC(=O)[C@@H](NC(=O)CNC(=O)[C@H](CCC(N)=O)NC(=O)C(C)(C)NC(=O)[C@@H](N)Cc1ccc(O)cc1)[C@@H](C)O)[C@@H](C)O)C(=O)N[C@@H](Cc1ccc(O)cc1)C(=O)N[C@@H](CC(C)C)C(=O)N[C@@H](CC(=O)O)C(=O)N[C@@H](CO)C(=O)N[C@@H](CCCCN)C(=O)N[C@@H](C)C(=O)N[C@@H](C)C(=O)N[C@@H](Cc1c[nH]cn1)C(=O)N[C@@H](CC(=O)O)C(=O)N[C@@H](Cc1ccccc1)C(=O)N[C@H](C(=O)N[C@@H](CCC(=O)O)C(=O)N[C@@H](Cc1c[nH]c2ccccc12)C(=O)N[C@@H](CC(C)C)C(=O)N[C@@H](CC(C)C)C(=O)N[C@@H](CCCNC(=N)N)C(=O)N[C@@H](C)C(N)=O)C(C)C
B5: Compound 14 (peptide)
peptide: YAQGTFTSDYSIYLEKKAAHDFVEWLLSA
HELM: PEPTIDE1{Y.[Aib].Q.G.T.F.T.S.D.Y.S.I.Y.L.E.K.K.A.A.H.D.F.V.E.W.L.L.S.A.[am]}$$$$V2.0
SMILES: CC[C@H](C)[C@H](NC(=O)[C@H](CO)NC(=O)[C@H](Cc1ccc(O)cc1)NC(=O)[C@H](CC(=O)O)NC(=O)[C@H](CO)NC(=O)[C@@H](NC(=O)[C@H](Cc1ccccc1)NC(=O)[C@@H](NC(=O)CNC(=O)[C@H](CCC(N)=O)NC(=O)C(C)(C)NC(=O)[C@@H](N)Cc1ccc(O)cc1)[C@@H](C)O)[C@@H](C)O)C(=O)N[C@@H](Cc1ccc(O)cc1)C(=O)N[C@@H](CC(C)C)C(=O)N[C@@H](CCC(=O)O)C(=O)N[C@@H](CCCCN)C(=O)N[C@@H](CCCCN)C(=O)N[C@@H](C)C(=O)N[C@@H](C)C(=O)N[C@@H](Cc1c[nH]cn1)C(=O)N[C@@H](CC(=O)O)C(=O)N[C@@H](Cc1ccccc1)C(=O)N[C@H](C(=O)N[C@@H](CCC(=O)O)C(=O)N[C@@H](Cc1c[nH]c2ccccc12)C(=O)N[C@@H](CC(C)C)C(=O)N[C@@H](CC(C)C)C(=O)N[C@@H](CO)C(=O)N[C@@H](C)C(N)=O)C(C)C
B6: Compound 13 (peptide)
peptide: YAQGTFTSDYSIYLDSKAAHDFVEWLLSAGPSSGAPPPS
HELM: PEPTIDE1{Y.[Aib].Q.G.T.F.T.S.D.Y.S.I.Y.L.D.S.K.A.A.H.D.F.V.E.W.L.L.S.A.G.P.S.S.G.A.P.P.P.S.[am]}$$$$V2.0
SMILES: CC[C@H](C)[C@H](NC(=O)[C@H](CO)NC(=O)[C@H](Cc1ccc(O)cc1)NC(=O)[C@H](CC(=O)O)NC(=O)[C@H](CO)NC(=O)[C@@H](NC(=O)[C@H](Cc1ccccc1)NC(=O)[C@@H](NC(=O)CNC(=O)[C@H](CCC(N)=O)NC(=O)C(C)(C)NC(=O)[C@@H](N)Cc1ccc(O)cc1)[C@@H](C)O)[C@@H](C)O)C(=O)N[C@@H](Cc1ccc(O)cc1)C(=O)N[C@@H](CC(C)C)C(=O)N[C@@H](CC(=O)O)C(=O)N[C@@H](CO)C(=O)N[C@@H](CCCCN)C(=O)N[C@@H](C)C(=O)N[C@@H](C)C(=O)N[C@@H](Cc1c[nH]cn1)C(=O)N[C@@H](CC(=O)O)C(=O)N[C@@H](Cc1ccccc1)C(=O)N[C@H](C(=O)N[C@@H](CCC(=O)O)C(=O)N[C@@H](Cc1c[nH]c2ccccc12)C(=O)N[C@@H](CC(C)C)C(=O)N[C@@H](CC(C)C)C(=O)N[C@@H](CO)C(=O)N[C@@H](C)C(=O)NCC(=O)N1CCC[C@H]1C(=O)N[C@@H](CO)C(=O)N[C@@H](CO)C(=O)NCC(=O)N[C@@H](C)C(=O)N1CCC[C@H]1C(=O)N1CCC[C@H]1C(=O)N1CCC[C@H]1C(=O)N[C@@H](CO)C(N)=O)C(C)C

Target: T1, human GIP receptor
Experiment: cell-based or functional assay

| Binder | EC50 (cAMP induction) [nM] |
| --- | --- |
| B1 | 0.28 |
| B2 | 0.091 |
| B3 | 0.07 |
| B4 | 0.084 |
| B5 | 0.06 |
| B6 | 0.083 |

Target: T2, human glucagon-like peptide 1 receptor (human, UniProt P43220 24-463)
Experiment: cell-based or functional assay

| Binder | EC50 (cAMP induction) [nM] |
| --- | --- |
| B1 | 0.02 |
| B2 | 0.011 |
| B3 | 0.021 |
| B4 | 0.012 |
| B5 | 0.013 |
| B6 | 0.0099 |

Target: T3, human glucagon receptor (human, UniProt P47871 26-477)
T3 sequence (P47871 26-477): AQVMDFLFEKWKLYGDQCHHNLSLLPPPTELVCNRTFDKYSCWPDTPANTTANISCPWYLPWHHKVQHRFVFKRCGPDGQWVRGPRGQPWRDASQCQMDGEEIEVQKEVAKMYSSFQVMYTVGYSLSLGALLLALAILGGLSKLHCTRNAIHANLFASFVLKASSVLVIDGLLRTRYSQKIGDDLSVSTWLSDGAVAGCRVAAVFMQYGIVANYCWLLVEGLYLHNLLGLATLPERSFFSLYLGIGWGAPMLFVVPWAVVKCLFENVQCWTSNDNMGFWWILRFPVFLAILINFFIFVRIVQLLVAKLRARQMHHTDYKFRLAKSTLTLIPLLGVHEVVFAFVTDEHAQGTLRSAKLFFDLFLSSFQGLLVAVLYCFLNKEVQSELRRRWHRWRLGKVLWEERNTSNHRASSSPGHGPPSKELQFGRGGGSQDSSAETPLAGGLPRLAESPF
Experiment: cell-based or functional assay

| Binder | EC50 (cAMP induction) [nM] |
| --- | --- |
| B1 | 0.11 |
| B2 | 0.16 |
| B3 | 0.15 |
| B4 | 0.076 |
| B5 | 0.1 |
| B6 | 0.24 |

Target: T1, human GIP receptor
Experiment: cell-based or functional assay
Remark: another data set of the same source

| Binder | EC50 (cAMP induction) [nM] |
| --- | --- |
| B1 | 0.02 |
| B2 | 0.013 |
| B3 | 0.021 |
| B4 | 0.012 |
| B5 | 0.013 |
| B6 | 0.01 |

Target: T2, human glucagon-like peptide 1 receptor
Experiment: cell-based or functional assay
Remark: another data set of the same source

| Binder | EC50 (cAMP induction) [nM] |
| --- | --- |
| B1 | 0.11 |
| B2 | 0.16 |
| B3 | 0.15 |
| B4 | 0.076 |
| B5 | 0.1 |
| B6 | 0.24 |

Target: T3, human glucagon receptor
Experiment: cell-based or functional assay
Remark: another data set of the same source

| Binder | EC50 (cAMP induction) [nM] |
| --- | --- |
| B1 | 0.11 |
| B2 | 0.16 |
| B3 | 0.15 |
| B4 | 0.076 |
| B5 | 0.1 |
| B6 | 0.24 |
